Experimental findings from publication PMC2994906 (PLoS ONE, 2010) are described below.

No end group written: not given here. Bounds are passed on as bounds.

Holding throughout (details): both partners purified
The target in experiment [1] is T1, human RARα LBD (residues 153-421) (human, UniProt P10276 153-421).
T1 construct: Cloned in pET15b; The purification of RARα alone is not described; also called hRARα LBD; RARα monomer; source: E. coli BL21 (DE3), purified
T1 sequence (looked up): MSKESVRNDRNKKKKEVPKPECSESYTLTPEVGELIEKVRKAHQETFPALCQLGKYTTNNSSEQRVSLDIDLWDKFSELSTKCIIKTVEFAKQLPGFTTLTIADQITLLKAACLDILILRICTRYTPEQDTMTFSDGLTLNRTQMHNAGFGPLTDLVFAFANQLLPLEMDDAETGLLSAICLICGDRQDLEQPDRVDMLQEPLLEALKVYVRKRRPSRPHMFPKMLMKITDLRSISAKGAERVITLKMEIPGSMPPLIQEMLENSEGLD
Description: ITC; SRC-1 NR2 peptide (1.3 mM) injected into 20-50 µM RAR without ligand (apo); 30°C; 20 mM Tris pH 8.0, 200 mM NaCl, 2% ethanol.

Experiment [2] has as its target T1, human RARα LBD (residues 153-421). Kind of experiment: ITC; SRC-1 NR2 peptide (1.3 mM) injected into 20-50 µM RAR or RAR/RXR with LG100754 in fivefold molar excess; 30°C; 20 mM Tris pH 8.0, 200 mM NaCl, 2% ethanol.
Experiment [3] deals with T2, hRARα/mRXRα LBD heterodimer (human | mouse, UniProt P10276 153-421; P28700 228-467).
T2 construct: RARα in pET15b (His-tagged), RXRα in pET3a (no tag named); The heterodimer was formed beforehand by copurification; also called RAR/RXR; RARα/RXRα LBD; copies: 1 + 1
T2 sequence (looked up) 1: T1 sequence (looked up)
T2 sequence (looked up) 2: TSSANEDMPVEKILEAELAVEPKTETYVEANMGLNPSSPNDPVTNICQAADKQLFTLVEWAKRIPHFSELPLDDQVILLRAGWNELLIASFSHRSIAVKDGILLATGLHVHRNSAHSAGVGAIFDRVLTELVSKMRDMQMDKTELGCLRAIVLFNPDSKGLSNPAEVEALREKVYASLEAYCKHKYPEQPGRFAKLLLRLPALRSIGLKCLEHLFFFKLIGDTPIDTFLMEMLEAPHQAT
Described as above.

Experiment [4] deals with T1, human RARα LBD (residues 153-421). Description: ITC; SRC-1 NR2 peptide (1.3 mM) injected into 20-50 µM RAR with an RAR agonist in fivefold molar excess (agonist not named); 30°C; 20 mM Tris pH 8.0, 200 mM NaCl, 2% ethanol.
The target in experiment [5] is T3, hRARα/mRXRα LBD heterodimer (human | mouse, UniProt P10276 153-421; P28700 228-467).
T3 construct: Heterodimer formed beforehand; small-molecule ligands (atRA, LG100754, AM580, BMS614, BMS649, 9-cisRA, HX531) differ between experiments and are named in the assays; also called RARα/RXRα LBD; RAR/RXR; not shown: His6, N-terminal, kept; copies: 1 + 1
T3 sequence (looked up) 1: T1 sequence (looked up)
T3 sequence (looked up) 2: T2 sequence (looked up) 2
Kind of experiment: fluorescence polarisation; fluorescence anisotropy; hRARα/mRXRα LBDs added to 1 µM TAMRA-SRC-1 NR2 peptide; 20°C; 10 mM TRIS-HCl pH 7.5, 150 mM NaCl, 10 mM DTT; apparent; RAR ligand AM580, RXR apo.

For experiment [6], the target named is T3, hRARα/mRXRα LBD heterodimer. Description: fluorescence polarisation; fluorescence anisotropy; hRARα/mRXRα LBDs added to 1 µM TAMRA-SRC-1 NR2 peptide; 20°C; 10 mM TRIS-HCl pH 7.5, 150 mM NaCl, 10 mM DTT; apparent; RAR apo, RXR ligand BMS649.
The target is the same in experiment [7]. Kind of experiment: fluorescence polarisation; fluorescence anisotropy; hRARα/mRXRα LBDs added to 1 µM TAMRA-SRC-1 NR2 peptide; 20°C; 10 mM TRIS-HCl pH 7.5, 150 mM NaCl, 10 mM DTT; apparent; RAR ligand BMS614, RXR ligand BMS649.
Experiment [8] has the same target. Description: fluorescence polarisation; fluorescence anisotropy; hRARα/mRXRα LBDs added to a fixed concentration of TAMRA-SRC-1 NR2 peptide; 20°C; 10 mM TRIS-HCl pH 7.5, 150 mM NaCl, 10 mM DTT; apparent; RAR apo, RXR apo.
Experiment [9] has the same target. Description: fluorescence polarisation; fluorescence anisotropy; hRARα/mRXRα LBDs added to 1 µM TAMRA-SRC-1 NR2 peptide; 20°C; 10 mM TRIS-HCl pH 7.5, 150 mM NaCl, 10 mM DTT; apparent; RAR ligand AM580, RXR ligand LG100754.
Experiment [10] shares this target. Description: fluorescence polarisation; fluorescence anisotropy; hRARα/mRXRα LBDs added to a fixed concentration of TAMRA-SRC-1 NR2 peptide; 20°C; 10 mM TRIS-HCl pH 7.5, 150 mM NaCl, 10 mM DTT; apparent; RAR apo, RXR ligand LG100754.
Experiment [11] shares this target. Kind of experiment: fluorescence polarisation; fluorescence anisotropy; hRARα/mRXRα LBDs added to a fixed concentration of TAMRA-SRC-1 NR2 peptide; 20°C; 10 mM TRIS-HCl pH 7.5, 150 mM NaCl, 10 mM DTT; apparent; RAR ligand BMS614, RXR ligand LG100754.
The target is the same in experiment [12]. Kind of experiment: fluorescence polarisation; fluorescence anisotropy; hRARα/mRXRα LBDs added to 1 µM TAMRA-SRC-1 NR2 peptide; 20°C; 10 mM TRIS-HCl pH 7.5, 150 mM NaCl, 10 mM DTT; apparent; 9-cisRA on RAR and RXR; two sites, fit gave k2 identical to k1.
For experiment [13] the target is unchanged. Description: fluorescence polarisation; fluorescence anisotropy; hRARα/mRXRα LBDs added to 1 µM TAMRA-SRC-1 NR2 peptide; 20°C; 10 mM TRIS-HCl pH 7.5, 150 mM NaCl, 10 mM DTT; apparent; RAR ligand AM580, RXR ligand BMS649; two sites, fit gave k2 identical to k1.

B1: SRC-1 NR2 peptide (676-[residues removed]-700) (peptide)
peptide: CPSSHSSLTERHKILHRLLQEGSPS
notes: The unlabelled 25-residue peptide used in ITC and ESI-MS; It is not the 13-residue TAMRA-labelled peptide of the anisotropy titrations
For the molecule B1, the Kd in [1] turned out to be 9000 ± 400 nM; in [2], 1600 ± 200 nM; in [3], 4500 ± 600 nM; in [4], 1400 ± 100 nM.

B2: TAMRA-labeled SRC-1 NR2 peptide (686-RHKILHRLLQEGS-698) (peptide)
peptide: RHKILHRLLQEGS
modifications: also: TAMRA label, position not given here
notes: also called (TAMRA) – SRC-1 NR2 peptide; source: bought: Neosystem (Strasbourg, France)
In the case of B2, the Kd in [5] amounted to 190 ± 20 nM; in [6], 420 ± 30 nM; in experiment [7] it was 450 ± 40 nM; in experiment [8], 2000 ± 100 nM; in experiment [9], 170 ± 10 nM; in [10], 2500 ± 100 nM. The Kd in [11] was above 10000 nM; in [12], 610 ± 20 nM; in [13], 290 ± 20 nM.
